Test results from US20240270821A1, “GIP/GLP1/GCG TRI-RECEPTOR AGONISTS AND USES THEREOF” (priority 2023, published 2024).

T1: human GIP receptor (human) (UniProt P48546)
T1 sequence (looked up): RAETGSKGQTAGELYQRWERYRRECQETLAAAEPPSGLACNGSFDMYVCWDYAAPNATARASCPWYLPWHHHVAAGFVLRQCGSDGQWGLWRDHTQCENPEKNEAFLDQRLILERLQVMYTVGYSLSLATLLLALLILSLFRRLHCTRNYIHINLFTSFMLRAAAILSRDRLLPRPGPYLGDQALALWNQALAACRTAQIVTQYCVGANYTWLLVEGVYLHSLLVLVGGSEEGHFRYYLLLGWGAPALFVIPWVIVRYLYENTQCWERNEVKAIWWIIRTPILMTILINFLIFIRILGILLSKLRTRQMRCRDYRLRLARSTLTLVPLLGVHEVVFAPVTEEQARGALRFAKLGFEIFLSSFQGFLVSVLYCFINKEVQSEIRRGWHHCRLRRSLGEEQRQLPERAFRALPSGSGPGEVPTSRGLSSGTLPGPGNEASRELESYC


Assays:
Experiment in all cases: cell-based or functional assay
[1] = biological target: hGLP-1R (Homo sapiens, UniProt P43220)
Sequence of hGLP-1R (P43220 24-463): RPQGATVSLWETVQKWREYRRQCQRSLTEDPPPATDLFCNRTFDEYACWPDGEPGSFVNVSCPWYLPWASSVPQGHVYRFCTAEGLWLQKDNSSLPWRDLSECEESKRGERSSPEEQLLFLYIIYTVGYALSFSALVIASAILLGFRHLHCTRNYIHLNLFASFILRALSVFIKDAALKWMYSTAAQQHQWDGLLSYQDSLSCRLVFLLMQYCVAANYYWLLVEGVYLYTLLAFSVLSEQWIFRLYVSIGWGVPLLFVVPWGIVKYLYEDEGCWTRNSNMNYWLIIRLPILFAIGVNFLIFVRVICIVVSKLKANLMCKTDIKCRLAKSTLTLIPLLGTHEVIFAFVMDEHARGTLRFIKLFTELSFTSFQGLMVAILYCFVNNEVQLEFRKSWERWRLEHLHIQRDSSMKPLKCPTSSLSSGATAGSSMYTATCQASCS

[2] = biological target: T1, human GIP receptor (human)
[3] = biological target: human glucagon receptor (human) (UniProt P47871)
Sequence of human glucagon receptor (human) (P47871 26-477): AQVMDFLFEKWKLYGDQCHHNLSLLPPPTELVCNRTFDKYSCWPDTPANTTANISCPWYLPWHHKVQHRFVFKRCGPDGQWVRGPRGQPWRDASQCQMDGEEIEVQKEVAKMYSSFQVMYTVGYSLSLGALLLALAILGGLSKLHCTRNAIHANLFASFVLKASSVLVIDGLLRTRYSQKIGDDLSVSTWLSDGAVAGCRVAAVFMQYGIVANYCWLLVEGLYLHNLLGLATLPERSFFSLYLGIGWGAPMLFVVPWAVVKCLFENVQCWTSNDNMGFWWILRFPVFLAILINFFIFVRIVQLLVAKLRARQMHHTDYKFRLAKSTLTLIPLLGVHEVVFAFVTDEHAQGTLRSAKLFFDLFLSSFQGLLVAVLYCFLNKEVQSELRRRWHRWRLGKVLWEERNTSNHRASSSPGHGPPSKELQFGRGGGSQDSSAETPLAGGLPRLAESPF

Binder	Relative cAMP EC50 [1]	cAMP Rel EC50, nM (in the presence of 1% HSA) [1]	Relative cAMP EC50 [2]	cAMP Rel EC50, nM (in the presence of 1% HSA) [2]	Relative cAMP EC50 [3]	cAMP Rel EC50, nM (in the presence of 1% HSA) [3]	Relative cAMP EC50, nM (0.1% casein) [1]	cAMP Rel EC50, nM (1% HSA) [1]	Relative cAMP EC50, nM (0.1% casein) [2]	cAMP Rel EC50, nM (1% HSA) [2]	Relative cAMP EC50, nM (0.1% casein) [3]	cAMP Rel EC50, nM (1% HSA) [3]
YXQGTFTSDFSXXLDKKAQXAFIEYLLEGGPSSGAPPPEGS (synthetic construct; SITE 2: note = 2-Aminoisobutyric Acid; SITE 12: note = L-ornithine; SITE 13: note = alpha-methyl-leucine; SITE 17: note = Lysine is chemically modified through conjugation of the epsilon-amino group of the Lysine side chain with (2-[2-(2-Amino-ethoxy)-ethoxy]-acetyl)-(gamma-Glu)) [Example 130]	4.29 nM	865 nM	0.411 nM	60.5 nM	3.74 nM	1080 nM	–	–	–	–	–	–
YXQGTFTSDFSXXLDKKAQXAFIEYLLEXGPSSGAPPPEGS (synthetic construct; SITE 2: note = 2-Aminoisobutyric Acid; SITE 12: note = L-ornithine; SITE 13: note = alpha-methyl-leucine; SITE 17: note = Lysine is chemically modified through conjugation of the epsilon-amino group of the Lysine side chain with (2-[2-(2-Amino-ethoxy)-ethoxy]-acetyl)2-(gamma-Glu)) [Example 194]	–	–	–	–	–	–	4.69 nM	697 nM	0.212 nM	19.7 nM	4.32 nM	813 nM
YXQGTFTSDFSXXLDKKAQXAFIEYLLAGGPSSGEPPPSGS (synthetic construct; SITE 2: note = 2-Aminoisobutyric Acid; SITE 12: note = L-ornithine; SITE 13: note = alpha-methyl-leucine; SITE 17: note = Lysine is chemically modified through conjugation of the epsilon-amino group of the Lysine side chain with (2-[2-(2-Amino-ethoxy)-ethoxy]-acetyl)-(gamma-Glu)) [Example 153]	–	–	–	–	–	–	7.09 nM	488 nM	0.218 nM	16.8 nM	14.7 nM	1210 nM
YXQGTFTSDFSRXLDKKAQXAFIEYLLEGGPSSGAPPPSGS (synthetic construct; SITE 2: note = 2-Aminoisobutyric Acid; SITE 13: note = alpha-methyl-leucine; SITE 17: note = Lysine is chemically modified through conjugation of the epsilon-amino group of the Lysine side chain with (2-[2-(2-Amino-ethoxy)-ethoxy]-acetyl)2-(gamma-Glu)-CO-(CH2 )16-CO2H; SITE 20:) [Example 144]	4.02 nM	990 nM	0.23 nM	46.2 nM	14.8 nM	2600 nM	–	–	–	–	–	–
YXQGTFTSDFSXXLDKKAQXAFIEYLLEGGPSSGAPPPGGQ (synthetic construct; SITE 2: note = 2-Aminoisobutyric Acid; SITE 12: note = L-ornithine; SITE 13: note = alpha-methyl-leucine; SITE 17: note = Lysine is chemically modified through conjugation of the epsilon-amino group of the Lysine side chain with (2-[2-(2-Amino-ethoxy)-ethoxy]-acetyl)-(gamma-Glu)) [Example 159]	–	–	–	–	–	–	4.15 nM	588 nM	0.343 nM	49.7 nM	6.89 nM	475 nM
YXQGTFTSDFSXXLDKKAQXAFIEYLLEXGHSSGAPPPSGT (synthetic construct; SITE 2: note = 2-Aminoisobutyric Acid; SITE 12: note = L-ornithine; SITE 13: note = alpha-methyl-leucine; SITE 17: note = Lysine is chemically modified through conjugation of the epsilon-amino group of the Lysine side chain with (2-[2-(2-Amino-ethoxy)-ethoxy]-acetyl)2-(gamma-Glu)) [Example 182]	–	–	–	–	–	–	4.8 nM	398 nM	0.0781 nM	9.95 nM	5.33 nM	1480 nM
YXQGTFTSDFSXXLDKKAQXAFIEWLLEGGHSSGAPPPSGS (synthetic construct; SITE 2: note = 2-Aminoisobutyric Acid; SITE 12: note = L-ornithine; SITE 13: note = alpha-methyl-leucine; SITE 17: note = Lysine is chemically modified through conjugation of the epsilon-amino group of the Lysine side chain with (2-[2-(2-Amino-ethoxy)-ethoxy]-acetyl)-(gamma-Glu)) [Example 170]	–	–	–	–	–	–	4.11 nM	361 nM	0.401 nM	43.5 nM	5.29 nM	1800 nM
YXQGTFTSDFSXXLDKKAQXAFIEYLLEAGPSSGEPPPSGT (synthetic construct; SITE 2: note = 2-Aminoisobutyric Acid; SITE 12: note = L-ornithine; SITE 13: note = alpha-methyl-leucine; SITE 17: note = Lysine is chemically modified through conjugation of the epsilon-amino group of the Lysine side chain with (2-[2-(2-Amino-ethoxy)-ethoxy]-acetyl)2-(gamma-Glu)) [Example 156]	–	–	–	–	–	–	3.37 nM	695 nM	0.208 nM	25.8 nM	3.62 nM	1520 nM
YXQGTFTSDFSXXLDKKAQXAFIEYLLEXGPSSGEPPPEGS (synthetic construct; SITE 2: note = 2-Aminoisobutyric Acid; SITE 12: note = L-ornithine; SITE 13: note = alpha-methyl-leucine; SITE 17: note = Lysine is chemically modified through conjugation of the epsilon-amino group of the Lysine side chain with (2-[2-(2-Amino-ethoxy)-ethoxy]-acetyl)2-(gamma-Glu)) [Example 195]	–	–	–	–	–	–	6.13 nM	829 nM	0.145 nM	28.8 nM	3.1 nM	605 nM
YXQGTFTSDFSKXLDKKAQXAFIEYLLEGGPSSGAPPPSGS (synthetic construct; SITE 2: note = 2-Aminoisobutyric Acid; SITE 13: note = alpha-methyl-leucine; SITE 17: note = Lysine is chemically modified through conjugation of the epsilon-amino group of the Lysine side chain with (2-[2-(2-Amino-ethoxy)-ethoxy]-acetyl)2-(gamma-Glu)-CO-(CH2 )16-CO2H; SITE 20:) [Example 142]	4.37 nM	391 nM	0.216 nM	14.1 nM	3.49 nM	1230 nM	–	–	–	–	–	–
YXQGTFTSDFSXXLDKKAQXAFIEYLLEGGPSSGAPPPGGT (acylated; synthetic construct; SITE 2: note = 2-Aminoisobutyric Acid; SITE 12: note = L-ornithine; SITE 13: note = alpha-methyl-leucine; SITE 17: note = Lysine is chemically modified through conjugation of the epsilon-amino group of the Lysine side chain with (2-[2-(2-Amino-ethoxy)-ethoxy]-acetyl)-(gamma-Glu)) [Example 197]	4.81 nM	–	0.31 nM	–	3.23 nM	–	–	440 nM	–	44.1 nM	–	613 nM
YXQGTFTSDFSKXLDKKAQXAFIEYLLEGGESSGAPPPSGS (synthetic construct; SITE 2: note = 2-Aminoisobutyric Acid; SITE 13: note = alpha-methyl-leucine; SITE 17: note = Lysine is chemically modified through conjugation of the epsilon-amino group of the Lysine side chain with (2-[2-(2-Amino-ethoxy)-ethoxy]-acetyl)2-(gamma-Glu)-CO-(CH2 )16-CO2H; SITE 20:) [Example 147]	–	–	–	–	–	–	4.26 nM	964 nM	0.343 nM	108 nM	4.39 nM	877 nM
YXQGTFTSDXSXXLDKKAQXAFIEYLLEXGPSSGAPPPSGS (Aib, F(4CN), Orn, αMeL; lipidated Lys; C-terminal amide; synthetic construct; SITE 2: note = 2-Aminoisobutyric Acid; SITE 10: note = 4-cyano-L-phenylalanine; SITE 12: note = L-ornithine; SITE 13: note = alpha-methyl-leucine; SITE 17: note = Lysine is chemically modified through conjugation of the epsilon-amino group of the Lysine side chain with (2-[2-(2-) [Example 178]	–	–	–	–	–	–	4.01 nM	–	0.34 nM	–	7.29 nM	–
